According to patent US20240018228A1 (University of Texas, published 2024):

Columns and labels:
[1] = molecular target: T1, human CCL21 (chemokine (C-C motif) ligand 21) (human, UniProt O00585 24-134); assay: western blot of human CCL21 protein probed with hybridoma supernatant ('Supernatent BalbC (1:10)')
T1 construct: The same entry is used for native CCL21 stained in tissue; also called hCCL21; rhCCL21
T1 sequence (looked up): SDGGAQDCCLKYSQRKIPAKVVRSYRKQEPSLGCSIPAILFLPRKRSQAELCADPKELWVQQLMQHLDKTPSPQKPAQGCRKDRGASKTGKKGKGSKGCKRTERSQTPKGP

CCL21 pep 2 = molecular target: T2, CCL21 pep 2; assay: slot blot; each lane holds only CCL21, pep 1 or pep 2 in the amount printed, probed with the monoclonal antibody (the legend calls it a competition)
T2 construct: One of the two peptides behind r1 of the first reading
T2 peptide: KYSQRKIPAKVVR

CCL21 pep 1 = molecular target: T3, CCL21 pep 1; assay: as above
T3 construct: One of the two peptides behind r1 of the first reading
T3 peptide: SLLILVLAFGIPR

human chemokine CCL19 = molecular target: T4, human chemokine CCL19 (human, UniProt Q99731 22-98); assay: western blot of human CCL19 and human CCL21 probed with the monoclonal antibody
T4 sequence (looked up): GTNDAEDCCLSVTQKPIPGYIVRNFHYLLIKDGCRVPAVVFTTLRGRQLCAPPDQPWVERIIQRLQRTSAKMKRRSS

mouse CCL21 = molecular target: T5, mouse CCL21 (mouse, UniProt P84444 24-133); assay: slot blot of human and mouse CCL21 protein probed with the monoclonal antibody
T5 construct: also called murine CCL21
T5 sequence (looked up): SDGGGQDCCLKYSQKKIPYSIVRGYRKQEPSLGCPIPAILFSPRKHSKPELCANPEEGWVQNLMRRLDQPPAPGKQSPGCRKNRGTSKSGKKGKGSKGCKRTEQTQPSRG

binding result [1]: binds | binding result (CCL21 pep 2): no binding (tested: 1.0 µg) | binding result (CCL21 pep 1): binds | binding result (human chemokine CCL19): no binding (tested: 100 ng) | binding result (mouse CCL21): no binding (tested: 1.0 µg)
B1: anti-CCL21 murine monoclonal antibody Clone #8 (C8) (antibody, V domains shown)
VH: EVQLQQSGAEIVRSGASVRLSCTASGFNIKDFYLNWVKQRPEQGLDWIGWIDPENGDTEYAPKFQGKATMTADTSSNTIYLHLSSLTSEDTAVYYCNAFDYDYWGQGTTLTVSS
VL: DIQMNQSPSSLSASLGDTVTITCHASQNINVWLSWYQQKPGNIPKLLIYKASNLHTGVPSRFSGSGSGTGFTLTISSLHPEDIATYYCHQGHSFPLTFGAGTKLELK
notes: Mouse monoclonal from immunized BALB/C mice; also called anti-CCL21 C8
